Source: publication PMC8935074, “Phosphorylated and Phosphomimicking Variants May Differ—A Case Study of 14-3-3 Protein” (Frontiers in Chemistry, 2022)
Numbering of substitutions follows the chain as printed. Names may count otherwise. Values belong to the molecule of their own block, whether it stands above or below them.

Assays:
14-3-3ζ [1] = target: 14-3-3ζ (UniProt P63104); test: SEC-RALS, 36.5 μM; conditions: sites S58
14-3-3ζ [2] = target: 14-3-3ζ (UniProt P63104); test: AUC sedimentation velocity, 36.5 μM; conditions: sites S58
14-3-3ζ L12E_M78K = 14-3-3ζ L12E_M78K (UniProt P63104); test: SEC-RALS; 5 mg/mL (183 μM) pζ and ζm in PBS pH 7.4, 20°C, triplicates; KD of dimerisation estimated from the protein percentage in the dimeric and monomeric peaks; dimer to monomers
14-3-3ζ WT [3] = target: 14-3-3ζ WT (UniProt P63104); test: AUC; sedimentation velocity, 1 mg/mL (36.5 μM) protein in 50 mM Tris-HCl, 300 mM NaCl, 3 mM NaN3, pH 8, 20°C, 50,000 RPM, c(s) distribution; dimer to monomers
14-3-3ζ WT [4] = target: 14-3-3ζ WT (UniProt P63104); test: SEC-RALS; size-exclusion chromatography with right-angle light scattering, 1 mg/mL (36.5 μM) protein in PBS pH 7.4, Zenix SEC 300 column, 20°C; dimer to monomers
[5] = target: 14-3-3ζ phosphorylated at Ser58 (UniProt P63104); test: SEC-RALS; 5 mg/mL (183 μM) pζ and ζm in PBS pH 7.4, 20°C, triplicates; KD of dimerisation estimated from the protein percentage in the dimeric and monomeric peaks; dimer to monomers
FRET; 15°C = target: the molecule itself; test: FRET; 15°C
[6] = target: the molecule itself; test: FRET or BRET; kinetic FRET assay in a cuvette: 200 nM AF647-labelled plus 200 nM AF488-labelled ζ_S58E_Ntail, then 100-fold excess of non-labelled ζ_S58E; 20 mM sodium phosphate pH 6.8, 15°C; profile fitted for KD and koff; dimer to monomers
[7] = target: the molecule itself; test: SEC-RALS; 4.5 mg/mL (164 μM) ζ_S58D and ζ_S57D_S58D in PBS pH 7.4, 20°C, triplicates; KD of dimerisation calculated from the observed MW as weighted average of dimer and monomer; dimer to monomers
[8] = target: the molecule itself; test: AUC; sedimentation velocity, 1 mg/mL (36.5 μM) protein in 50 mM Tris-HCl, 300 mM NaCl, 3 mM NaN3, pH 8, 20°C, 50,000 RPM, c(s) distribution; dimer to monomers
[9] = reference: non-phosphorylated ζ

other: apparent MW (14-3-3ζ [1]; [9]): weaker; reference 54.5 | other: apparent MW (14-3-3ζ [2]; [9]): weaker; reference 56.4
Molecule: 14-3-3ζ (from UniProt P63104) pζ (PKA co-expressed, purified pS58 form)

other: apparent MW (14-3-3ζ [1]; reference: ζ wild type): weaker; reference 54.5 | other: apparent MW (14-3-3ζ [2]; reference: ζ wild type): weaker; reference 56.4
Molecule: 14-3-3ζ (from UniProt P63104) ζ_S57D_S58D

other: apparent MW (14-3-3ζ [1]; reference: ζ wild type): weaker; reference 54.5 | other: apparent MW (14-3-3ζ [2]; reference: ζ wild type): weaker; reference 56.4
Molecule: 14-3-3ζ (from UniProt P63104) ζ_S58D

other: apparent MW (14-3-3ζ [1]; reference: ζ wild type): weaker; reference 54.5 | other: apparent MW (14-3-3ζ [2]; reference: ζ wild type): same; reference 56.4
Molecule: 14-3-3ζ (from UniProt P63104) ζ_S58E

Kd (14-3-3ζ L12E_M78K): 4600 µM
Molecule: 14-3-3ζ L12E_M78K (from UniProt P63104 1-245) (natural protein)

stoichiometry N (14-3-3ζ WT [3]): 2 | stoichiometry N (14-3-3ζ WT [4]): 2
Molecule: 14-3-3ζ WT (from UniProt P63104 1-245) (natural protein)

Kd [5]: 7600 µM
Molecule: 14-3-3ζ phosphorylated at Ser58 (from UniProt P63104 1-245) (natural protein)

B1: ζ_S58E_Ntail, fluorescently labelled (natural protein)
chain: SVDACKGSSGGMDKNELVQKAKLAEQAERYDDMAAAMKSVTEQGAELSNEERNLLSVAYKNVVGARRSEWRVVSSIEQKTEGAEKKQQMAREYREKIETELRDICNDVLSLLEKFLIPNASQAESKVFYLKMKGDYYRYLAEVAAGDDKKGIVDQSQQAYQEAFEISKKEMQPTHPIRLGLALNFSVFYYEILNSPEKAASLAKTAFDEAIAELDTLSEESYKDSTLIMQLLRDNLTLWTSDTQGDEAEAGEGGEN
modifications: Cys5 (of the added N-terminal tail) labelled with AlexaFluor647-C5-maleimide (AF647) in one preparation and AlexaFluor488-C2-maleimide (AF488) in the other
koff (FRET; 15°C): 0.731 s⁻¹ | Kd [6]: 0.35 ± 0.25 µM

B2: 14-3-3ζ S58D (natural protein, UniProt P63104 1-245, looked up)
chain: MDKNELVQKAKLAEQAERYDDMAAAMKSVTEQGAELSNEERNLLSVAYKNVVGARRSDWRVVSSIEQKTEGAEKKQQMAREYREKIETELRDICNDVLSLLEKFLIPNASQAESKVFYLKMKGDYYRYLAEVAAGDDKKGIVDQSQQAYQEAFEISKKEMQPTHPIRLGLALNFSVFYYEILNSPEKAASLAKTAFDEAIAELDTLSEESYKDSTLIMQLLRDNLTLWTSDTQGDEAEAGEGGEN
notes: 14-3-3ζ protein with C25A C189A and the phosphomimicking mutation S58D; source: E. coli BL21(DE3) CodonPlus RIL, purified (protocol of Hritz et al., 2014)
Kd [7]: 132 ± 7 µM

B3: 14-3-3ζ S58E (natural protein, UniProt P63104 1-245, looked up)
chain: B2 chain with D58E
notes: 14-3-3ζ protein with C25A C189A and the phosphomimicking mutation S58E; source: E. coli BL21(DE3) CodonPlus RIL, purified (protocol of Hritz et al., 2014)
stoichiometry N [8]: 2

B4: 14-3-3ζ S57D_S58D (natural protein, UniProt P63104 1-245, looked up)
chain: B2 chain with S57D
notes: also called double phosphomimicking mutant; source: E. coli BL21(DE3) CodonPlus RIL, purified (protocol of Hritz et al., 2014)
Kd [7]: 348 ± 19 µM
